Assays:
TGF-beta1 [1] = target: T1, TGF-beta1 (Homo sapiens, UniProt P01137 P01137:279-390); assay: filter; boundary experiment; settings: tags: Genentech; chain copies: 2
PDGF-AB [2] = target: T2, PDGF-AB (Homo sapiens, UniProt P04085;P01127 P04085:87-211,P01127:82-190); assay: filter; 20t binds within factor 2 of full length; settings: tags: R&D Systems
Procedure: (§1) D. Determination of the Apparent Equilibrium Dissociation Constants and the Dissociation Rate Constants The binding of ssDNA ligands at low concentrations to varying concentrations of PDGF was determined by the nitrocellulose filter binding method as described (Green et al., (1995) *Chemistry and Biology* 2: 683–695). The concentrations of PDGF stock solutions (in PBS) were determined from the absorbance readings at […] using the following $e280$ values calculated from the amino acid sequences (Gill, S. C., and von Hippel, P. H. (1989) *Anal. Biochem.* 182: 319–326): 19,500 M^-1cm^-1 for PDGF-AA, 15,700 M^-1cm^-1 for PDGF-AB and 11,800 M^-1cm^-1 for PDGF-BB. ssDNA for all binding experiments were purified by electrophoresis on 8% (>80 nucleotides) or 12% (<40 nucleotides) polyacrylamide/7 M urea gels. All ssDNA ligands were heated at 90° C. in binding buffer at high dilution ($\approx$1 nM) for 2 min and cooled on ice prior to frier dilution into the protein solution. The binding mixtures were typically incubated for 15 min at 37° C. before partitioning on nitrocellulose filters.

PDGF-AB [3] = target: T2, PDGF-AB; assay: filter; 41t binds within factor 2 of full length; settings: tags: R&D Systems
Procedure: as §1

TGF-beta1 [4] = target: T1, TGF-beta1; assay: cell_activity; second value 298 nM; settings: tags: Genentech; chain copies: 2
Procedure: (§2) Mink lung epithelial cells (MLEC) carrying the Pai1/luc construct were maintained in DME containing 10% fetal bovine serum and 400 μg/ml G418. MLEC-Pai1/luc cells were plated at 3.2×10^4 cells per well in a 96 well Falcon plate, in 100 μl of DME+10% fetal bovine serum overnight. Media was made from autoclaved water. The cells were washed three times (100 μl) in serum free DME plus Solution A (1:1). Solution A is 30 mM Hepes pH 7.6, 10 mM glucose, 3.0 mM KCl, 131 mM NaCl, 1.0 mM disodium phosphate. Samples (100 μl) were added in DME containing 20 mM Hepes pH 7.5, and 0.1% BSA (Fluka, radioimmunoassay grade). All samples were in triplicate. After six hours at 37° C. in a 5% CO_2 incubator the media was removed and cells were washed three times (100 μl each) in cold PBS. Lysis buffer (75 μl) (Analytical Luminescence Laboratory) was added and the plates incubated on ice for 20 min. The plates were sealed and frozen at −80° C. until assayed. Samples (25 μl) were assayed for luciferase activity with the Enhanced Luciferase Assay Kit from Analytical Luminescence Laboratory (San Diego, Calif., USA) according to the manufacturers instructions using the Berthold Microlumat LB96P luminometer.
(§3) Ligands tested for inhibition of TGFβ1 activity were tested at a minimum of five concentrations. […]

KGF (hKGF) [5] = target: T3, KGF (hKGF) (Homo sapiens, UniProt P21781 P21781:32-194); assay: filter; DPBS 37 C; settings: tags: Upstate Biotechnology
T3 sequence: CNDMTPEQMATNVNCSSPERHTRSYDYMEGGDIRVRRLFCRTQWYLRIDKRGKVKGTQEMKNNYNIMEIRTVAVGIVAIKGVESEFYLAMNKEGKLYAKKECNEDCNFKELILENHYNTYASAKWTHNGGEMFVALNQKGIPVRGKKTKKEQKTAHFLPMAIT

KGF (hKGF) [6] = target: T3, KGF (hKGF); assay: competition; PC-3 assay; settings: tags: Upstate Biotechnology
Procedure: PC-3 cells were plated in 24-well plates at about 10^5 cells per well. Following growth for […], the cells were serum starved for 24 hours, washed two times with 500 µl of cold DPBS, and then incubated with 500 µl binding buffer (BB1; DPBS, 0.5 mM MgCl_2, 0.2% BSA. 0.02% sodium azide) containing various concentrations of ^125I-labeled KGF ranging from 0 to 0.8 nM. Following 3–3.5 hour incubation at 4° C., the binding mixes were aspirated and the well-adhered cells were washed two times with 1 ml BB1 and once with 1 ml BB1 supplemented with 0.5M NaCl. The remaining bound labeled hKGF was solubilized in 600 µl 0.5% SDS/0.1M NaOH and counted in a gamma counter (Beckmann). Nonspecific binding was determined in the presence of 100 fold molar excess of unlabeled hKGF. For competition assays, the labeled hKGF was kept constant at 0.3 nM, and varying concentrations of competitor molecules were included in the binding reactions ranging from 0–1,000 nM. Binding curves were fitted to the equation: […]
A subset of these ligands was tested on the NIH3T3/FGFR-2. In determining the Ki values, it was assumed that 3T3 cells have 500,000 binding sites per cell and PC-3 cells have 5,000 binding sites per cell.

PDGF-AB [7] = target: T2, PDGF-AB; assay: filter; thrombin aptamer control; settings: tags: R&D Systems, E. coli; predicted stem-loop
PDGF-BB [8] = target: T4, PDGF-BB (Homo sapiens, UniProt P01127 P01127:82-190); assay: competition; no effect on receptor binding or mitogenesis; settings: tags: R&D Systems; chain copies: 2; stem-loop
T4 sequence (P01127 82-190, one chain of several): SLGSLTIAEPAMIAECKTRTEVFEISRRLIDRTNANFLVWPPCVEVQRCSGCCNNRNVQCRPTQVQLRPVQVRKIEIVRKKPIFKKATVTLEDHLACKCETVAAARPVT
Procedure: After incubation for 24 h at 37° C., ^3H-radioactivity incorporated into DNA was determined using a β-counter.

TGF-beta1 [9] = target: T1, TGF-beta1; assay: filter; n=3; KRH buffer 37 C; IC50 25 ± 14 nM in PAI-luciferase assay; settings: tags: Genentech or R&D Systems; chain copies: 2
TGF-beta1 [10] = target: T1, TGF-beta1; assay: cell_activity; second value 103 nM; settings: tags: Genentech; chain copies: 2
Procedure: as §2, §3

PDGF-AA = PDGF-AA (Homo sapiens, UniProt P04085 P04085:87-211); assay: filter; 37 C; comparable to random DNA; settings: tags: R&D Systems, E. coli, long form A-chain; chain copies: 2; label: 5'-32P; three-way helix junction
Procedure: as §1
(§4) The fraction of ^32P 5' end-labeled DNA ligands bound to varying concentrations of PDGF was determined by the nitrocellulose filter binding method. Minimal ligands tested were 20t (○), 36t (Δ), and 41t (□). […]

PDGF-BB [11] = target: T4, PDGF-BB; assay: competition; 125I-PDGF-BB binding to PDGF alpha-receptor on PAE cells; settings: tags: R&D Systems; chain copies: 2; three-way junction
PDGF-AB [12] = target: T2, PDGF-AB; assay: filter; 37 C, PBSM + 0.01% HSA; high affinity component; settings: tags: R&D Systems, E. coli; label: 5'-32P; three-way helix junction
Procedure: as §1, §4

PDGF-BB [13] = target: T4, PDGF-BB; assay: as above; settings: tags: R&D Systems, E. coli; chain copies: 2; label: 5'-32P; three-way helix junction
Procedure: as §1, §4

T1 sequence (P01137 279-390, one chain of several): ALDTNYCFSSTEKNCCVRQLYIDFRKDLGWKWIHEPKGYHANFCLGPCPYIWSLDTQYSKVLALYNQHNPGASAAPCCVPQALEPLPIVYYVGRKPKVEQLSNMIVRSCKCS
T2 sequence (P01127 82-190, chain 2 of 2, other chains not shown): as the sequence (P01127 82-190, one chain of several) above

B1: lib3-13-(38-123) (ssRNA)
RNA: GCUUCCGAGUAGACAGGAGGGAGGGGUGGAUGUGGCGUCUACUCGGUGUCGUGAAGCUUCGCUCUAGAUCUCCCUUUAGUGAGGGU
B1: binds (TGF-beta1 [1]).

B2: ligand 20 full length (ssDNA)
DNA: ATCCGCCTGATTAGCGATACTATGGGAGGGCGCGTTCTTCGTGGTTACTTTTAGTCCCGACTTGAGCAAAATCACCTGCAGGGG
B2: binds (PDGF-AB [2]).

B3: ligand 41 full length (ssDNA)
DNA: ATCCGCCTGATTAGCGATACTCAGGGCACTGCAAGCAATTGTGGTCCCAATGGGCTGAGTACTTGAGCAAAATCACCTGCAGGGG
B3: binds (PDGF-AB [3]).

B4: lib2-6-1-81 (ssRNA)
RNA: GGGGGAGAACGCGGAUCCUGUCUCCACCGCCGAUACUGGGGUUCCUGGGGCCCCUCCAUGCAGGAGGGGGGUGGUUCGGAG
modifications: 2'-NH2 U, 2'-F C
B4 was tested, and the IC50 (TGF-beta1 [4]) was 201 nM.

B5: 10F (ssRNA)
RNA: GGGAGGACGAUGCGGGACCAGAUGGCGGAUUUUUCAGCAAUCCUCCCCCCGCUGCCCAGACGACUCGCCCGA
modifications: 2'-F pyrimidines
B5 showed a Kd (KGF (hKGF) [5]) of 0.47 nM.

B6: 10F (K10F) (ssRNA)
RNA: GGGAGGACGAUGCGGGACCAGAUGGCGGAUUUUUCAGCAAUCCUCCCCCCGCUGCCCAGACGACUCGCCCGA
modifications: 2'-F pyrimidines
B6 was tested, and the IC50 (KGF (hKGF) [6]) was 30 nM.

B7: T39 (ssDNA)
DNA: CAGTCCGTGGTAGGGCAGGTTGGGGTGACTTCGTGGAA
modifications: 3'-3' inverted T
With B7 the Kd (PDGF-AB [7]) was 230 nM and the binding result (PDGF-BB [8]) was “no binding”.

B8: lib3-13 (ssRNA)
RNA: GGGGGAGAACGCGGAUCCGAGCAAUCCCAGGCGCAUAGCUUCCGAGUAGACAGGAGGGAGGGGUGGAUGUGGCGUCUACUCGGUGUCGUGAAGCUUCGCUCUAGAUCUCCCUUUAGUGAGGGUUA
modifications: 2'-NH2 pyrimidines
Binder B8 has a Kd (TGF-beta1 [9]) of 0.83 nM.

B9: 47N (ssRNA)
RNA: GGGAGGACGAUGCGGGAAGGGUAGGAAGGUCAAGAGGAAACAGCGCUUCGGGGGUGCAGACGACUCGCCCGA
modifications: 2'-NH2 pyrimidines
For B9, the Kd (KGF (hKGF) [5]) was 1.76 nM.

B10: lib2-6-1 (ssRNA)
RNA: GGGGGAGAACGCGGAUCCUGUCUCCACCGCCGAUACUGGGGUUCCUGGGGCCCCUCCAUGCAGGAGGGGGGUGGUUCGGAGAAAGCUUCGCUCUAGAUCUCCCUUUAGUGAGGGUUA
modifications: 2'-NH2 U, 2'-F C
With B10 the IC50 (TGF-beta1 [10]) was 112 nM.

B11: lib3-13-79 (ssRNA)
RNA: GGGGGAGAACGCGGAUCCGAGCAAUCCCAGGCGCAUAGCUUCCGAGUAGACAGGAGGGAGGGGUGGAUGUGGCGUCUAC
B11: binds (TGF-beta1 [1]).

B12: 20t (ssDNA)
DNA: TGGGAGGGCGCGTTCTTCGTGGTTACTTTTAGTCCCG
modifications: 3'-3' inverted T
With B12 the Kd (PDGF-AA) was 47 nM, the IC50 (PDGF-BB [11]) was roughly 1 nM and the Kd (PDGF-AB [12]) was 0.147 nM. It also gave a Kd (PDGF-BB [13]) of 0.127 nM.

B13: 4N (ssRNA)
RNA: GGGAGGACGAUGCGGGUGGUGAAGAGGUACCGGAAUUGCUAAAGAUACCACGGCCCAGACGACUCGCCCGA
modifications: 2'-NH2 pyrimidines
With B13 the Kd (KGF (hKGF) [5]) was 0.75 nM.

B14: 4N (K4N) (ssRNA)
RNA: GGGAGGACGAUGCGGGUGGUGAAGAGGUACCGGAAUUGCUAAAGAUACCACGGCCCAGACGACUCGCCCGA
modifications: 2'-NH2 pyrimidines
B14 gave an IC50 (KGF (hKGF) [6]) of 70 nM.
